Reference: patent publication US20230183713A1, “SITE-SPECIFIC RECOMBINASES FOR EFFICIENT AND SPECIFIC GENOME EDITING” (TECHNISCHE UNIVERSITÄt DRESDEN, published 2023)

How the values were obtained:
Test in all cases: cell_activity; E. coli plasmid assay, median
Conditions in all cases: chain copies: 2
[1] = molecular target: Cre R292G + Cre Q311R (UniProt P06956;P06956 SEQ:1-343,SEQ:1-343, R292G (first monomer))
Method: (§1) To generate further obligate recombinases, additional single mutations in the catalytic region (i.e. at amino acid positions 129-136, 163-181, 199-211, 289-301, 310-316 and 321-324 of SEQ ID NO: 1, cf. FIG. 17A, dark regions) of the recombination synapse of the Cre recombinase (Guo et al. 1997, Lee et al. 2002, Gibb et al. 2010, Meinke et al. 2016) were introduced as outlined in Table 6 below. […] Recombination activity of the recombinases on loxP was measured by a plasmid-based assay as previously described (6, 9, 10). in the experiments, the recombined pEVO is smaller in size compared to the non-recombined pEVO. […] These two different fragments can either be distinguished by gel electrophoresis or by sequencing. The recombination efficiencies (indicated as dimer and monomer acitivty, respectively) were calculated based on the ratio of recombined and non-recombined substrate using the following formula: Recombination activity (%)=100×(recombined substrate/(recombined+non-recombined substrates)).

[2] = molecular target: Cre R173S + Cre Q311R (UniProt P06956;P06956 SEQ:1-343,SEQ:1-343, R173S (first monomer))
Method: as §1

[3] = molecular target: Cre Q133H + Cre Q311R (UniProt P06956;P06956 SEQ:1-343,SEQ:1-343, Q133H (first monomer))
Method: as §1

[4] = molecular target: Cre Q311R + Cre Y324I (UniProt P06956;P06956 SEQ:1-343,SEQ:1-343, Y324I (second monomer))
Method: as §1

[5] = molecular target: Cre Q311R + Cre Y324F (UniProt P06956;P06956 SEQ:1-343,SEQ:1-343, Y324F (second monomer))
Method: as §1

[6] = molecular target: Cre K201M + Cre K201R (UniProt P06956;P06956 SEQ:1-343,SEQ:1-343, K201M (first monomer))
Method: as §1

[7] = molecular target: Cre Q311R + Cre W315M (UniProt P06956;P06956 SEQ:1-343,SEQ:1-343, W315M (second monomer))
Method: as §1

[8] = molecular target: Cre E129R + Cre K201R (UniProt P06956;P06956 SEQ:1-343,SEQ:1-343, E129R (first monomer))
Method: as §1

[9] = molecular target: Cre E176I + Cre Q311R (UniProt P06956;P06956 SEQ:1-343,SEQ:1-343, E176I (first monomer))
Method: as §1

[10] = molecular target: Cre R292F + Cre Q311R (UniProt P06956;P06956 SEQ:1-343,SEQ:1-343, R292F (first monomer))
Method: as §1

[11] = molecular target: Cre R173G + Cre K201Y (UniProt P06956;P06956 SEQ:1-343,SEQ:1-343, R173G (first monomer); K201Y (second monomer))
Method: as §1

[12] = molecular target: Cre K201F + Cre Y324C (UniProt P06956;P06956 SEQ:1-343,SEQ:1-343, K201F (first monomer); Y324C (second monomer))
Method: as §1

[13] = molecular target: Cre W315Q + Cre Y324V (UniProt P06956;P06956 SEQ:1-343,SEQ:1-343, W315Q (first monomer); Y324V (second monomer))
Method: as §1

[14] = molecular target: Cre K201A + Cre Q311R (UniProt P06956;P06956 SEQ:1-343,SEQ:1-343, K201A (first monomer))
Method: as §1

[15] = molecular target: Cre R173F + Cre E176V (UniProt P06956;P06956 SEQ:1-343,SEQ:1-343, R173F (first monomer); E176V (second monomer))
Method: as §1

[16] = molecular target: Cre Q311R + Cre W315S (UniProt P06956;P06956 SEQ:1-343,SEQ:1-343, W315S (second monomer))
Method: as §1

[17] = molecular target: Cre W315K + Cre Y324K (UniProt P06956;P06956 SEQ:1-343,SEQ:1-343, W315K (first monomer); Y324K (second monomer))
Method: as §1

[18] = molecular target: Cre H289D + Cre Q311R (UniProt P06956;P06956 SEQ:1-343,SEQ:1-343, H289D (first monomer))
Method: as §1

[19] = molecular target: Cre R173A + Cre Q311R (UniProt P06956;P06956 SEQ:1-343,SEQ:1-343, R173A (first monomer))
Method: as §1

[20] = molecular target: Cre E176W + Cre Q311R (UniProt P06956;P06956 SEQ:1-343,SEQ:1-343, E176W (first monomer))
Method: as §1

[21] = molecular target: Cre E129R + Cre Q311R (UniProt P06956;P06956 SEQ:1-343,SEQ:1-343, E129R (first monomer))
Method: as §1

[22] = molecular target: Cre H289W + Cre W315C (UniProt P06956;P06956 SEQ:1-343,SEQ:1-343, H289W (first monomer); W315C (second monomer))
Method: as §1

[23] = molecular target: Cre R292Y + Cre Y324M (UniProt P06956;P06956 SEQ:1-343,SEQ:1-343, R292Y (first monomer); Y324M (second monomer))
Method: as §1

B1: loxP (dsDNA)
DNA 1: ATAACTTCGTATAATGTATGCTATACGAAGTTAT
DNA 2: ATAACTTCGTATAGCATACATTATACGAAGTTAT
B1 gave an activity [1] of 97 % recombined, an activity [2] of 97 % recombined and an activity [3] of 96 % recombined. It also gave an activity [4] of 96 % recombined, an activity [5] of 95 % recombined and an activity [6] of 76 % recombined. It also gave an activity [7] of 95 % recombined, an activity [8] of 26 % recombined and an activity [9] of 36 % recombined. The activity [10] was 42 % recombined, the activity [11] was 95 % recombined and the activity [12] was 98 % recombined. It also gave an activity [13] of 97 % recombined, an activity [14] of 95 % recombined and an activity [15] of 82 % recombined. The activity [16] was 37 % recombined, the activity [17] was 99 % recombined and the activity [18] was 97 % recombined. For the same binder, the activity [19] was 93 % recombined, the activity [20] was 90 % recombined and the activity [21] was 93 % recombined. It also gave an activity [22] of 87 % recombined and an activity [23] of 90 % recombined.
